According to patent US20020106374A1:

Molecular target: HIV-1JR-FL envelope glycoproteins gp120/gp41 (HIV-1 JR-FL)
Assay: cell-based or functional assay

T-20 (peptide)
IC90, inhibition of HIV-1JR-FL Env-mediated cell-cell fusion (RET assay): 22 nM
IC90, inhibition of HIV-1JR-FL virus-cell fusion (luciferase reporter virus, HeLa-CD4+CCR5+ cells): 45 nM
K (equal to IC50), inhibition of env-mediated membrane fusion (RET) between HeLa-EnvJR-FL and PM1 cells: 0.017 µg/mL
increase in IC50 in the RET assay after co-incubation of HeLa-Env cells, PM1 cells and inhibitor for 2 h at 25° C., washing and warming to 37° C. (fold increase in IC50): > 250

CD4-IgG2 (from UniProt P01730 26-203; P01730 26-203) (Fc fusion)
IC90, inhibition of HIV-1JR-FL Env-mediated cell-cell fusion (RET assay): 11 nM
IC90, inhibition of HIV-1JR-FL virus-cell fusion (luciferase reporter virus, HeLa-CD4+CCR5+ cells): 12 nM
K (equal to IC50), inhibition of env-mediated membrane fusion (RET) between HeLa-EnvJR-FL and PM1 cells: 0.31 µg/mL
activity in the RET assay after co-incubation of HeLa-Env cells, PM1 cells and inhibitor for 2 h at 25° C., washing and warming to 37° C.: 12 fold lower
potency in the washout RET assay (drug pre-incubated with HeLa-Env cells, washed, then PM1 cells added) against the standard assay: 6 fold lower
